Among the data in the supplement of paper PMC5998384 are melting temperature and thermal stability score values, retold here.

Data set [1] relates to HeLa Kyoto. Kind of data set: melting temperature (median over replicates), in situ; higher = more thermally stable.
The subject of data set [2] is HeLa Kyoto. The data set can be described thus: thermal stability score vs G1/S (z-score of summed log2 fold changes over temperatures); higher = more thermally stable than in G1/S.
The mark [3] stands for this setting: cell cycle stage: early G1 (4.5 h after nocodazole release).
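Throughout, for melting temperature (median over replicates), in situ: HeLa Kyoto cells synchronized by double thymidine or nocodazole block, proteins quantified by TMT10plex mass spectrometry, three independent biological replicates.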
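Throughout, for thermal stability score vs G1/S (z-score of summed log2 fold changes over temperatures): synchronized HeLa Kyoto cells, proteins quantified by TMT10plex mass spectrometry, three biological replicates, mitosis taken 0.5 h after nocodazole release, G1/S directly after double thymidine block.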

Sequence of ARF1 (chain, as listed by the source): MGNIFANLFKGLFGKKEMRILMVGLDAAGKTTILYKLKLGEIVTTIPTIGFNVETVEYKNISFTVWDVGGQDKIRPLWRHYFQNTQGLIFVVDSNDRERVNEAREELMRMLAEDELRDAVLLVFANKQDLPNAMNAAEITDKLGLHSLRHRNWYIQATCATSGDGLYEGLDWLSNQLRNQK
Sequence of PDK1 (chain, as listed by the source): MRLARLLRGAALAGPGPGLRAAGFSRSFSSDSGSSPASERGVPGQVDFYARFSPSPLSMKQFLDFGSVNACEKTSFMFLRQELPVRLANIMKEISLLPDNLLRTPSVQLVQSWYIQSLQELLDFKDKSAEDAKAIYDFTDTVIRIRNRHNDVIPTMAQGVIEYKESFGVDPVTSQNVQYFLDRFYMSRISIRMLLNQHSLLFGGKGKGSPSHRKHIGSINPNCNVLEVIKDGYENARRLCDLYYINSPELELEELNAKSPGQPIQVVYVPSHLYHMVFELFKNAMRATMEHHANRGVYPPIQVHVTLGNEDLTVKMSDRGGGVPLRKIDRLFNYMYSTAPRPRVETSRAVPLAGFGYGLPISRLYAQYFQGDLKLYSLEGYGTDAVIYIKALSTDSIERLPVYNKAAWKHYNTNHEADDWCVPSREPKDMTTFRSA

As to ARF1, the melting temperature in data set [1] (cell cycle stage: G1/S) was determined as 59.6 °C; in data set [1] (cell cycle stage: mitosis), 57.8 °C.
On the same counts, the results for KIF1B are 50.5 °C and 52.2 °C.
In turn, “MAAGQNGHEEWVGSAYLFVESSLDKVVLSDAYAHPQQKVAVYRALQAALAESGGSPDVLQMLKIHRSDPQLIVQLRFCGRQPCGRFLRAYREGALRAALQRSLAAALAQHSVPLQLELRAGAERLDALLADEERCLSCILAQQPDRLRDEELAELEDALRNLKCGSGARGGDGEVASAPLQPPVPSLSEVKPPPPPPPAQTFLFQGQPVVNRPLSLKDQQTFARSVGLKWRKVGRSLQRGCRALRDPALDSLAYEYEREGLYEQAFQLLRRFVQAEGRRATLQRLVEALEENELTSLAEDLLGLTDPNGGLA [TRADD]” had a melting temperature in data set [1] (cell cycle stage: G1/S) of 49.9 °C.
On to “MAGPAAAFRRLGALSGAAALGFASYGAHGAQFPDAYGKELFDKANKHHFLHSLALLGVPHCRKPLWAGLLLASGTTLFCTSFYYQALSGDPSIQTLAPAGGTLLLLGWLALAL [TMEM256]”, for which the melting temperature in data set [1] (cell cycle stage: mitosis) was 56.6 °C.
As to “MGSNSSRIGDLPKNEYLKKLSGTESISENDPFWNQLLSFSFPAPTSSSELKLLEEATISVCRSLVENNPRTGNLGALIKVFLSRTKELKLSAECQNHIFIWQTHNALFIICCLLKVFICQMSEEELQLHFTYEEKSPGNYSSDSEDLLEELLCCLMQLITDIPLLDITYEISVEAISTMVVFLSCQLFHKEVLRQSISHKYLMRGPCLPYTSKLVKTLLYNFIRQEKPPPPGAHVFPQQSDGGGLLYGLASGVATGLWTVFTLGGVGSKAAASPELSSPLANQSLLLLLVLANLTDASDAPNPYRQAIMSFKNTQDSSPFPSSIPHAFQINFNSLYTALCEQQTSDQATLLLYTLLHQNSNIRTYMLARTDMENLVLPILEILYHVEERNSHHVYMALIILLILTEDDGFNRSIHEVILKNITWYSERVLTEISLGSLLILVVIRTIQYNMTRTRDKYLHTNCLAALANMSAQFRSLHQYAAQRIISLFSLLSKKHNKVLEQATQSLRGSLSSNDVPLPDYAQDLNVIEEVIRMMLEIINSCLTNSLHHNPNLVYALLYKRDLFEQFRTHPSFQDIMQNIDLVISFFSSRLLQAGAELSVERVLEIIKQGVVALPKDRLKKFPELKFKYVEEEQPEEFFIPYVWSLVYNSAVGLYWNPQDIQLFTMDSD [DYM]”, the thermal stability score in data set [2] (setting [3]) came to 0.139; in data set [2] (cell cycle stage: mitosis), 0.823.
The corresponding values for “MHTLVFLSTRQVLQCQPAACQALPLLPRELFPLLFKVAFMDKKTVVLRELVHTWPFPLLSFQQLLQECAHCSRALLQERPSTESMQAVILGLTARLHTSEPGASTQPLCRKHALRVLDMTGLLDDGVEQDPGTMSMWDCTAAVARTCIAQQQGGAAEPGPAPIPVEVRVDLRVNRASYAFLREALRSSVGSPLRLCCRDLRAEDLPMRNTVALLQLLDAGCLRRVDLRFNNLGLRGLSVIIPHVARFQHLASLRLHYVHGDSRQPSVDGEDNFRYFLAQMGRFTCLRELSMGSSLLSGRLDQLLSTLQSPLESLELAFCALLPEDLRFLARSPHAAHLKKLDLSGNDLSGSQLAPFQGLLQASAATLLHLELTECQLADTQLLATLPILTQCASLRYLGLYGNPLSMAGLKELLRDSVAQAELRTVVHPFPVDCYEGLPWPPPASVLLEASINEEKFARVEAELHQLLLASGRAHVLWTTDIYGRLAADYFSL [LRRC14]” are -0.753 and -0.00668.
The corresponding values for “MIEVVAELSRGPVFLAGEALECVVTVTNPLPPTATSASSEALAWASAQIHCQFHASESRVALPPPDSSQPDVQPDSQTVFLPHRGERGQCILSTPPKILFCDLRLDPGESKSYSYSEVLPIEGPPSFRGQSVKYVYKLTIGCQRVNSPITLLRVPLRVLVLTGLQDVRFPQDEAVAPSSPFLEEDEGGKKDSWLAELAGERLMAATSCRSLHLYNISDGRGKVGTFGIFKSVYRLGEDVVGTLNLGEGTVACLQFSVSLQTEERVQPEYQRRRGAGGVPSVSHVTHARHQESCLHTTRTSFSLPIPLSSTPGFCTAIVSLKWRLHFEFVTSREPGLVLLPPVEQPEPTTWTGPEQVPVDTFSWDLPIKVLPTSPTLASYAAPGPSTSTITI [RGP1]” are 0.0205 and -1.18.
The corresponding values for “MLCLCLYVPVIGEAQTEFQYFESKGLPAELKSIFKLSVFIPSQEFSTYRQWKQKIVQAGDKDLDGQLDFEEFVHYLQDHEKKLRLVFKSLDKKNDGRIDAQEIMQSLRDLGVKISEQQAEKILKSMDKNGTMTIDWNEWRDYHLLHPVENIPEIILYWKHSTIFDVGENLTVPDEFTVEERQTGMWWRHLVAGGGAGAVSRTCTAPLDRLKVLMQVHASRSNNMGIVGGFTQMIREGGARSLWRGNGINVLKIAPESAIKFMAYEQIKRLVGSDQETLRIHERLVAGSLAGAIAQSSIYPMEVLKTRMALRKTGQYSGMLDCARRILAREGVAAFYKGYVPNMLGIIPYAGIDLAVYETLKNAWLQHYAVNSADPGVFVLLACGTMSSTCGQLASYPLALVRTRMQAQASIEGAPEVTMSSLFKHILRTEGAFGLYRGLAPNFMKVIPAVSISYVVYENLKITLGVQSR [SLC25A25]” are -0.983 and -0.000686.
On to “MLIKEYHILLPMSLDEYQVAQLYMIQKKSREESSGEGSGVEILANRPYTDGPGGSGQYTHKVYHVGSHIPGWFRALLPKAALQVEEESWNAYPYTRTRYTCPFVEKFSIEIETYYLPDGGQQPNVFNLSGAERRQRILDTIDIVRDAVAPGEYKAEEDPRLYHSVKTGRGPLSDDWARTAAQTGPLMCAYKLCKVEFRYWGMQAKIEQFIHDVGLRRVMLRAHRQAWCWQDEWTELSMADIRALEEETARMLAQRMAKCNTGSEGSEAQPPGKPSTEARSAASNTGTPDGPEAPPGPDASPDASFGKQWSSSSRSSYSSQHGGAVSPQSLSEWRMQNIARDSENSSEEEFFDAHEGFSDSEEVFPKEMTKWNSNDFIDAFASPVEAEGTPEPGAEAAKGIEDGAQAPRDSEGLDGAGELGAEACAVHALFLILHSGNILDSGPGDANSKQADVQTLSSAFEAVTRIHFPEALGHVALRLVPCPPICAAAYALVSNLSPYSHDGDSLSRSQDHIPLAALPLLATSSSRYQGAVATVIARTNQAYSAFLRSPEGAGFCGQVALIGDGVGGILGFDALCHSANAGTGSRGSSRRGSMNNELLSPEFGPVRDPLADGVEGLGRGSPEPSALPPQRIPSDMASPEPEGSQNSLQAAPATTSSWEPRRASTAFCPPAASSEAPDGPSSTARLDFKVSGFFLFGSPLGLVLALRKTVMPALEAAQMRPACEQIYNLFHAADPCASRLEPLLAPKFQAIAPLTVPRYQKFPLGDGSSLLLADTLQTHSSLFLEELEMLVPSTPTSTSGAFWKGSELATDPPAQPAAPSTTSEVVKILERWWGTKRIDYSLYCPEALTAFPTVTLPHLFHASYWESADVVAFILRQVIEKERPQLAECEEPSIYSPAFPREKWQRKRTQVKIRNVTSNHRASDTVVCEGRPQVLSGRFMYGPLDVVTLTGEKVDVYIMTQPLSGKWIHFGTEVTNSSGRLTFPVPPERALGIGVYPVRMVVRGDHTYAECCLTVVARGTEAVVFSIDGSFTASVSIMGSDPKVRAGAVDVVRHWQDSGYLIVYVTGRPDMQKHRVVAWLSQHNFPHGVVSFCDGLTHDPLRQKAMFLQSLVQEVELNIVAGYGSPKDVAVYAALGLSPSQTYIVGRAVRKLQAQCQFLSDGYVAHLGQLEAGSHSHASSGPPRAALGKSSYGVAAPVDFLRKQSQLLRSRGPSQAEREGPGTPPTTLARGKARSISLKLDSEE [PITPNM1]”, for which the thermal stability score was 0.586 in data set [2] (setting [3]) and 0.463 in data set [2] (cell cycle stage: mitosis).
On the same counts, the results for “MSGFENLNTDFYQTSYSIDDQSQQSYDYGGSGGPYSKQYAGYDYSQQGRFVPPDMMQPQQPYTGQIYQPTQAYTPASPQPFYGNNFEDEPPLLEELGINFDHIWQKTLTVLHPLKVADGSIMNETDLAGPMVFCLAFGATLLLAGKIQFGYVYGISAIGCLGMFCLLNLMSMTGVSFGCVASVLGYCLLPMILLSSFAVIFSLQGMVGIILTAGIIGWCSFSASKIFISALAMEGQQLLVAYPCALLYGVFALISVF [YIPF5]” are -0.124 and -0.361.
With “MSLVPATNYIYTPLNQLKGGTIVNVYGVVKFFKPPYLSKGTDYCSVVTIVDQTNVKLTCLLFSGNYEALPIIYKNGDIVRFHRLKIQVYKKETQGITSSGFASLTFEGTLGAPIIPRTSSKYFNFTTEDHKMVEALRVWASTHMSPSWTLLKLCDVQPMQYFDLTCQLLGKAEVDGASFLLKVWDGTRTPFPSWRVLIQDLVLEGDLSHIHRLQNLTIDILVYDNHVHVARSLKVGSFLRIYSLHTKLQSMNSENQTMLSLEFHLHGGTSYGRGIRVLPESNSDVDQLKKDLESANLTANQHSDVICQSEPDDSFPSSGSVSLYEVERCQQLSATILTDHQYLERTPLCAILKQKAPQQYRIRAKLRSYKPRRLFQSVKLHCPKCHLLQEVPHEGDLDIIFQDGATKTPDVKLQNTSLYDSKIWTTKNQKGRKVAVHFVKNNGILPLSNECLLLIEGGTLSEICKLSNKFNSVIPVRSGHEDLELLDLSAPFLIQGTIHHYGCKQCSSLRSIQNLNSLVDKTSWIPSSVAEALGIVPLQYVFVMTFTLDDGTGVLEAYLMDSDKFFQIPASEVLMDDDLQKSVDMIMDMFCPPGIKIDAYPWLECFIKSYNVTNGTDNQICYQIFDTTVAEDVI [POT1]”, the values for the thermal stability score in data set [2] (setting [3]) and in data set [2] (cell cycle stage: mitosis) were 0.878 and 1.25, respectively.
With “MSSGNAKIGHPAPNFKATAVMPDGQFKDISLSDYKGKYVVFFFYPLDFTFVCPTEIIAFSDRAEEFKKLNCQVIGASVDSHFCHLAWVNTPKKQGGLGPMNIPLVSDPKRTIAQDYGVLKADEGISFRGLFIIDDKGILRQITVNDLPVGRSVDETLRLVQAFQFTDKHGEVCPAGWKPGSDTIKPDVQKSKEYFSKQK [PRDX1]”, the thermal stability score in data set [2] (setting [3]) was -0.285; in data set [2] (cell cycle stage: mitosis) it was -1.31.
The corresponding values for “MSSSLRPGPSRWRRAASIVLAAGWSRPETATPPSRPPPAEGFRLLLLQRSPHQGFMPGAHVFSGGVLDAADRSADWLGLFAPHHGPPRFGLGPAPFSRTAFPSLPDTDDHKTDNTGTLPEDVAFRICAVREAFEEAGVLLLRPRTSPPGPAPGPGLALEPPPGLASWRDRVRQDPRHFLRLCAHLDCTPDIWALHNWSAWLTPFLRGTTRRFDTAFFLCCLREPPPVYPDLAEVVGYQWSSPSEATESFLSKEIWLPPPQFYEVRRLANFASLSDLHKFCLGRALEGLERWLPIILLTADGMVHLLPGDELYLEDSDFLENLMSTEKKTEEIMKEGKQFHRIVTYHRHLYDIHVTVQPKYKHVYPKNSVVRKSHL [NUDT19]” are -1.25 and -1.33.
Consider “MWSGPPQPDQGLPPPLAAVPVPWKSTDPCQGHRESPGALVETSAGEEAQGQEGPAAAQLDVLRLRSSSMEIREKGSEFLKEELHRAQKELKLKDEECERLSKVREQLEQELEELTASLFEEAHKMVREANMKQAASEKQLKEARGKIDMLQAEVTALKTLVITSTPASPNRELHPQLLSPTKAGPRKGHSRHKSTSSTLCPAVCPAAGHTLTPDREGKEVDTILFAEFQAWRESPTLDKTCPFLERVYREDVGPCLDFTMQELSVLVRAAVEDNTLTIEPVASQTLPTVKVAEVDCSSTNTCALSGLTRTCRHRIRLGDSKSHYYISPSSRARITAVCNFFTYIRYIQQGLVRQDAEPMFWEIMRLRKEMSLAKLGFFPQEA [RAB3IL1]”, for which the thermal stability score is -0.0366 in data set [2] (setting [3]) and 0.539 in data set [2] (cell cycle stage: mitosis).
On the same counts, the results for PDK1 are -0.202 and 0.796.
